± gives the uncertainty stated by the source.

This data set can be described thus: self-splicing fitness, log relative to wild type (ln ratio); higher = more splicing; Tetrahymena group I intron in knt gene, E. coli kanamycin selection, DiMSum; sequences stand for … in CUCUCU…GGAGGGAAAAGUUAUCAGGCAUGCACCUGGUAGCUAGUCUUUAAACCAAUAGAUUGCAUCGGUUUAAAAGGCAAGACCGUCAAAUUGCGGGAAAGGGGUCAACAGCCGUUCAGUACCAAGUCUCAGGGGAAACUUUGAGAUGGCCUUGCAAAGGGUAUGGUAAUAAGCUGACGGACAUGGUCCUAACCACGCAGCCAAGUCCUAAGUCAACAGAUCUUCUGUUGAUAUGGAUGCAGUUCACAGACUAAAUGUCGGUCGGGGAAGAUGUAUUCUUCUCAUAAGAUAUAGUCGGACCUCUCCUUAAUGGGAGCUAGCGGAUGAAGUGAUGCAACACUGGAGCCGCUGGGAACUAAUUUGUAUGCGAAAGUAUAUUGAUUAGUUUUGGAGUACUCGUGGUCG
A digest of the protocol:
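Fitness was computed with DiMSum as the error-weighted combination of replicate fold changes, kanamycin versus none, each normalised to wild type. The library randomised all eight intron nucleotides of the P1ex region, with the intron placed in the knt kanamycin-resistance gene on pET-22b(+) in E. coli BL21(DE3). Six replicate transformations were grown overnight at 37°C or 30°C on LB agar with or without 25 μg/mL kanamycin, plus 100 μg/mL carbenicillin, 50 μM IPTG and 0.2% rhamnose. Pooled colonies were amplicon-sequenced on an Illumina HiSeq 2500.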

Consider GCAUAGCAAUAUUACGGGUA, for which the “self-splicing fitness (ln)” value by setting is: (30 °C) -0.992 ± 0.12; (37 °C) -1.11 ± 0.11.

As for AACAAGCAAUAUUACGCGGA, the “self-splicing fitness (ln)” value by setting is: (30 °C) -2.07 ± 0.099; (37 °C) -0.961 ± 0.078.

For AGCUAGCAAUAUUACGGCGG, the “self-splicing fitness (ln)” value is, setting by setting: (30 °C) -1.13 ± 0.12; (37 °C) -0.547 ± 0.14.

ACGAAGCAAUAUUACGUUUG: the “self-splicing fitness (ln)” value was -1.27 ± 0.071 (30 °C) and -1.16 ± 0.11 (37 °C).

With GGGAAGCAAUAUUACGGCAG, where the note is “30 °C”, the “self-splicing fitness (ln)” value was -2.64 ± 0.34.

Regarding GAUUAGCAAUAUUACGUCCA, the “self-splicing fitness (ln)” value (30 °C) was -2.04 ± 0.21 and the “self-splicing fitness (ln)” value (37 °C) turned out to be 0.198 ± 0.18.

Take UCUCAGCAAUAUUACGGUUC: the “self-splicing fitness (ln)” value by setting is: (30 °C) -2.57 ± 0.21; (37 °C) -1.73 ± 0.34.

For the sequence AUCUAGCAAUAUUACGGCGG, the “self-splicing fitness (ln)” value is -1.12 ± 0.083 (30 °C) and -1.15 ± 0.1 (37 °C).

Take GAGCAGCAAUAUUACGGGAG: the “self-splicing fitness (ln)” value by setting is: (30 °C) -3.68 ± 0.32; (37 °C) -2.9 ± 0.35.

On to UCAGAGCAAUAUUACGACUG, for which the “self-splicing fitness (ln)” value is -1.67 ± 0.19 (30 °C) and -0.645 ± 0.2 (37 °C).

CAGGAGCAAUAUUACGUCGU: the “self-splicing fitness (ln)” value (37 °C) is -1.97 ± 0.37.

Regarding AGGGAGCAAUAUUACGCAGU, the “self-splicing fitness (ln)” value (30 °C) is -2.41 ± 0.47 and the “self-splicing fitness (ln)” value (37 °C) was -1.44 ± 0.33.

In the case of UGCGAGCAAUAUUACGUACU, the “self-splicing fitness (ln)” value reads like this: (30 °C) -2.58 ± 0.24; (37 °C) -1.23 ± 0.22.

Consider ACGGAGCAAUAUUACGAAAC, for which, where the note is “37 °C”, the “self-splicing fitness (ln)” value is -1.46 ± 0.31.

As for CUAGAGCAAUAUUACGCCAG, the “self-splicing fitness (ln)” value runs as follows: (30 °C) -0.97 ± 0.1; (37 °C) -0.759 ± 0.21.

For the sequence UGUCAGCAAUAUUACGGGCU, the “self-splicing fitness (ln)” value runs as follows: (30 °C) -1.7 ± 0.086; (37 °C) -1.4 ± 0.12.

For the sequence UCGGAGCAAUAUUACGUCGA, the “self-splicing fitness (ln)” value was -0.356 ± 0.42 (30 °C) and -0.949 ± 0.3 (37 °C).

For UUUCAGCAAUAUUACGGGAU, the “self-splicing fitness (ln)” value was -2.73 ± 0.12 (30 °C) and -1.64 ± 0.13 (37 °C).

GACCAGCAAUAUUACGUCAA: the “self-splicing fitness (ln)” value reads like this: (30 °C) -2.51 ± 0.18; (37 °C) -1.06 ± 0.1.

Consider UUAUAGCAAUAUUACGCCGG, for which the “self-splicing fitness (ln)” value (30 °C) is -0.862 ± 0.19 and the “self-splicing fitness (ln)” value (37 °C) was -0.599 ± 0.32.

Regarding AGAUAGCAAUAUUACGGGGA, the “self-splicing fitness (ln)” value is, setting by setting: (30 °C) -3.46 ± 0.31; (37 °C) -3.05 ± 0.35.

On to AGUGAGCAAUAUUACGCCUG, for which the “self-splicing fitness (ln)” value is -3.85 ± 0.29 (30 °C) and -2.38 ± 0.29 (37 °C).

As for AACAAGCAAUAUUACGGUGC, the “self-splicing fitness (ln)” value runs as follows: (30 °C) -3.67 ± 0.16; (37 °C) -2.04 ± 0.12.

Consider UUAUAGCAAUAUUACGGUCC, for which the “self-splicing fitness (ln)” value by setting is: (30 °C) -2.8 ± 0.21; (37 °C) -2.93 ± 0.29.

As for UAUCAGCAAUAUUACGCCGU, the “self-splicing fitness (ln)” value was -1.43 ± 0.24 (30 °C) and 0.487 ± 0.22 (37 °C).

Consider AAUCAGCAAUAUUACGGGUA, for which the “self-splicing fitness (ln)” value by setting is: (30 °C) -0.368 ± 0.071; (37 °C) 0.17 ± 0.081.

In the case of AGUUAGCAAUAUUACGGAUU, the “self-splicing fitness (ln)” value is, setting by setting: (30 °C) -1.32 ± 0.14; (37 °C) -0.035 ± 0.16.

Turning to CGCCAGCAAUAUUACGACAU, the “self-splicing fitness (ln)” value (30 °C) is -3.741 ± 0.023 and the “self-splicing fitness (ln)” value (37 °C) is -2.75 ± 0.038.

Take GUGUAGCAAUAUUACGCUUC: the “self-splicing fitness (ln)” value runs as follows: (30 °C) -2.71 ± 0.28; (37 °C) -3.09 ± 0.47.

Consider GCGCAGCAAUAUUACGCUUC, for which the “self-splicing fitness (ln)” value is -1.97 ± 0.24 (30 °C) and -0.419 ± 0.15 (37 °C).

As to CGAUAGCAAUAUUACGCCAA, the “self-splicing fitness (ln)” value is -2.66 ± 0.25 (30 °C) and -1.87 ± 0.15 (37 °C).

As to GGACAGCAAUAUUACGUUCU, the “self-splicing fitness (ln)” value is, setting by setting: (30 °C) -2.91 ± 0.12; (37 °C) -2.45 ± 0.18.

As for CAGAAGCAAUAUUACGGUCG, the “self-splicing fitness (ln)” value is, setting by setting: (30 °C) -0.112 ± 0.075; (37 °C) 0.395 ± 0.11.

CCCCAGCAAUAUUACGAUUU: the “self-splicing fitness (ln)” value is, setting by setting: (30 °C) -3.43 ± 0.14; (37 °C) -3.51 ± 0.25.

Consider AUGUAGCAAUAUUACGGAAG, for which the “self-splicing fitness (ln)” value (37 °C) is -2.01 ± 0.31.

For CAGUAGCAAUAUUACGAGGG, the “self-splicing fitness (ln)” value is, setting by setting: (30 °C) -2.85 ± 0.13; (37 °C) -4.18 ± 0.46.

Turning to CGUAAGCAAUAUUACGGAAC, where the note is “37 °C”, the “self-splicing fitness (ln)” value was -1.39 ± 0.39.

With GGGCAGCAAUAUUACGCAAU, the “self-splicing fitness (ln)” value runs as follows: (30 °C) -0.2 ± 0.071; (37 °C) -0.127 ± 0.085.

For CUAUAGCAAUAUUACGGUGC, the “self-splicing fitness (ln)” value reads like this: (30 °C) -3.69 ± 0.28; (37 °C) -2.75 ± 0.29.
